Experimental data taken from article PMC3852661, “Structural basis of SUFU–GLI interaction in human Hedgehog signalling regulation” (Acta Crystallographica Section D: Biological Crystallography, 2013).
Where no end group is shown, it is not given here. The star is where a group is joined. 5FAM = O=C1OC2(c3ccc(O)cc3Oc3cc(O)ccc32)c2ccc(C(=O)*)cc21

T1: MBP_(A216H_K220H)-SUFU-Δ_(W61D_L62S_G63F_P453A_Δ454–456_K457A) (human, UniProt Q9UMX1 32-278; Q9UMX1 361-483, W61D | L62S | G63F | P453A | Δ454–456 | K457A)
T1 construct: human SUFU, residues 32-278, WLG61-63 mutated to DSF; heptamer that replaces amino acids 279-360 (the IDR), as in MBP-SUFU-Δ; human SUFU, residues 361-483, a flexible loop shortened; Derived from MBP-SUFU-Δ; residues 216 and 220 of the MBP moiety mutated to histidine; crystallised with zinc acetate and maltose; source: E. coli JM109 (DE3), purified (HisTrap, SEC); not shown: MBP (A216H, K220H), …
T1 sequence: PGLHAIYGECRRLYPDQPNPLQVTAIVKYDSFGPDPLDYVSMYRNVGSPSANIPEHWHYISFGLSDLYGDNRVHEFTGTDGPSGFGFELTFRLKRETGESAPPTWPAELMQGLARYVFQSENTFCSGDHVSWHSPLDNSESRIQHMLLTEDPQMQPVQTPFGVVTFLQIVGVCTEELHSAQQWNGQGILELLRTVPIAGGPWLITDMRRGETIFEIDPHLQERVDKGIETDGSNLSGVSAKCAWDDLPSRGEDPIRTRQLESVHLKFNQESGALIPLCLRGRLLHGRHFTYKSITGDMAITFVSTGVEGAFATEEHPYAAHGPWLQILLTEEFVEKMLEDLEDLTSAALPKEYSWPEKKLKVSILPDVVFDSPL

B1: MBP-SUFU-Δ (domain or fragment, human)
chain: PGLHAIYGECRRLYPDQPNPLQVTAIVKYWLGGPDPLDYVSMYRNVGSPSANIPEHWHYISFGLSDLYGDNRVHEFTGTDGPSGFGFELTFRLKRETGESAPPTWPAELMQGLARYVFQSENTFCSGDHVSWHSPLDNSESRIQHMLLTEDPQMQPVQTPFGVVTFLQIVGVCTEELHSAQQWNGQGILELLRTVPIAGGPWLITDMRRGETIFEIDPHLQERVDKGIETDGSNLSGVSAKCAWDDLPSRGEDPIRTRQLESVHLKFNQESGALIPLCLRGRLLHGRHFTYKSITGDMAITFVSTGVEGAFATEEHPYAAHGPWLQILLTEEFVEKMLEDLEDLTSPEEFKLPKEYSWPEKKLKVSILPDVVFDSPL
notes: human SUFU, residues 32-278; heptamer that replaces amino acids 279-360 (the IDR); human SUFU, residues 361-483; Same frame as MBP-SUFU-FL (three-alanine linker after MBP); source: E. coli JM109 (DE3), purified (HisTrap, SEC); not shown: MBP, N-terminal, kept
B2: GLI1p (peptide, UniProt P08151 115-131, looked up)
peptide: TSPGGSYGHLSIGTMSP
notes: human GLI1, residues 115-131, holds the SYGH motif; also called human GLI1-derived peptide; source: synthetic peptide (Dr W. Mawby, University of Bristol)
B3: MBP-SUFU-FL (domain or fragment, human, UniProt Q9UMX1 32-483, looked up)
chain: PGLHAIYGECRRLYPDQPNPLQVTAIVKYWLGGPDPLDYVSMYRNVGSPSANIPEHWHYISFGLSDLYGDNRVHEFTGTDGPSGFGFELTFRLKRETGESAPPTWPAELMQGLARYVFQSENTFCSGDHVSWHSPLDNSESRIQHMLLTEDPQMQPVQTPFGVVTFLQIVGVCTEELHSAQQWNGQGILELLRTVPIAGGPWLITDMRRGETIFEIDPHLQERVDKGIETDGSNLSGVSAKCAWDDLSRPPEDDEDSRSICIGTQPRRLSGKDTEQIRETLRRGLEINSKPVLPPINPQRQNGLAHDRAPSRKDSLESDSSTAIIPHELIRTRQLESVHLKFNQESGALIPLCLRGRLLHGRHFTYKSITGDMAITFVSTGVEGAFATEEHPYAAHGPWLQILLTEEFVEKMLEDLEDLTSPEEFKLPKEYSWPEKKLKVSILPDVVFDSPL
notes: human SUFU (Suppressor of fused), residues 32-483, called essentially full length; MBP is joined to SUFU by a three-alanine linker; vector pLJMBP4c (Monné et al., 2008); also called SUFU_(32–483); source: E. coli JM109 (DE3), purified (HisTrap, SEC); not shown: MBP, N-terminal, kept
B4: FAM-GLI1p (peptide, UniProt P08151 115-131, looked up)
peptide: 5FAM-TSPGGSYGHLSIGTMSP
notes: human GLI1, residues 115-131; also called 5-FAM-labelled peptide; FAM-labelled GLI1p peptide; source: synthetic peptide (Pepceuticals Ltd)

Key:
Details in all cases: both partners purified
[1] = target: T1, MBP_(A216H_K220H)-SUFU-Δ_(W61D_L62S_G63F …); experiment: crystal structure; co-crystals of the MBP-SUFU-Δ variant with zinc acetate (1:1) and GLI1p or GLI3p (1:4); hanging drop, 4°C, PEG 3350, sodium formate
MBP-SUFU-FL [2] = target: B3; experiment: HDX-MS; MBP-SUFU-FL with a 5.5-fold excess of GLI3p, incubated 1 h; exchange 300, 600 and 1800 s at 4°C; 50 mM Na HEPES pH 7.0, 50 mM NaCl, 5 mM β-mercaptoethanol, 1.5 mM maltose
GLI1p = target: B2; experiment: thermal stability assay (SYPRO Orange); 2.2 µM MBP-SUFU protein with 44 µM peptide; 50 mM Na HEPES pH 7.0, 50 mM NaCl, 5 mM β-mercaptoethanol; heated from 20 to 90°C; triplicate
MBP-SUFU-FL [3] = target: B3; experiment: MST; 50 nM FAM-GLI1p, MBP-SUFU constructs titrated (14.2–29 070 and 54–110 500 nM); 50 mM Tris–HCl pH 7.6, 150 mM NaCl, 10 mM MgCl2, 0.05% Tween-20; three independent measurements

Binder	binding result [1]	Tm shift on addition of GLI1p (GLI1p) [°C]	other results
SSASGSYGHLSASAISP (peptide, UniProt P10071 328-344, looked up, human GLI3, residues 328-344) [GLI3p]	binds		binding result (MBP-SUFU-FL [2]): binds
B1		3.6	
B2	binds		
B3		4	
B4			binding result (MBP-SUFU-FL [3]): binds
